Entries after “also recorded” stand apart in the source; their conditions may differ.
B1: CD40L: CD40 ligand used as stimulus, presented on transfected, formaldehyde fixed CHO cells (protein)
chain: MIETYNQTSPRSAATGLPISMKIFMYLLTVFLITQMIGSALFAVYLHRRLDKIEDERNLHEDFVFMKTIQRCNTGERSLSLLNCEEIKSQFEGFVKDIMLNKEETKKENSFEMQKGDQNPQIAAHVISEASSKTTSVLQWAEKGYYTMSNNLVTLENGKQLTVKRQGLYYIYAQVTFCSNREASSQAPFIASLCLKSPGRFERILLRAANTHSSAKPCGQQSIHLGGVFELQPGASVFVNVTDPSQVSHGTGFTSFGLLKL
modifications: expressed on fixed CHO cells

Assays:
soluble CD40 = soluble CD40 (Homo sapiens, UniProt P25942); test: ELISA-type assay, binding to soluble CD40; settings: ELISA-type assays
Excerpt: (§1) 2, 2000, and PCT International Application No. PCT/US01/30857, also titled “Human Anti-CD40 Antibodies,” filed Oct. 2, 2001, both of which are herein incorporated by reference in their entirety.

cell-surface CD40 = cell-surface CD40 (Homo sapiens, UniProt P25942); test: Flow cytometric (FACS) assay of CD40 binding and CD40-ligand blocking
Excerpt: as §1

[1] = tested on: B cells from normal human subjects; test: In vitro proliferation of normal human B cells / lymphocytes; format: cell-based
Excerpt: as §1
(§2) 4, 2003, Nov. 26, 2003, and Apr. 27, 2004, and assigned U.S. Patent Application Nos. 60/517,337 , 60/525,579, and 60/565,710, respectively, and International Patent Application No. PCT/US2004/037152, also entitled “Antagonist Anti-CD40 Monoclonal Antibodies and Methods for Their Use,” filed Nov. 4, 2004; the contents of each of which are herein incorporated by reference in their entirety.

[2] = tested on: primary cancer cells from NHL patients; test: ADCC on primary cancer cells; format: cell-based, human; settings: in vitro
Excerpt: as §2

[3] = tested on: cancer cells from NHL and CLL patients; test: In vitro CD40 ligand-mediated proliferation of patient cancer cells; format: cell-based, human
Excerpt: as §2

[4] = tested on: CD40-expressing target cells; test: Antibody dependent cellular cytotoxicity (ADCC); format: cell-based; settings: native antibodies
Excerpt: as §1
Clones from 7 other hybridomas were identified as having antagonistic activity. Based on their relative antagonistic potency and ADCC activities, two hybridoma clones were selected for further evaluation (Table 1 below). They are named 131.2F8.5.9 (5.9) and 153.8E2.D10.D6.12.12 (12.12).

normal B cells = test: CD40L-induced cytokine secretion, Meso Scale Discovery multi-array; format: cell-based, human; settings: normal B cells
Description: (§3) Cells (1×10^5 cells per well) were cultured in a 96-well plate in the presence or absence of CD40L ([…], formaldehyde fixed CHO cells, 2×10^5 per well). […] Production of hIL-6, hIL-8, hIL-10, hTNF-α; hGM-CSF, hIL-1b, hIL-12p70, MCP-1, and MIP-1β beta was measured by Meso Scale Discovery® multi-array system (Meso Scale Discovery, Gaithersburg, Md.).

monocytes = test: as above; format: cell-based, human; settings: monocytes, Donor 1, 24 hours
Description: as §3

cell-surface CD40, sequence (P25942 21-277): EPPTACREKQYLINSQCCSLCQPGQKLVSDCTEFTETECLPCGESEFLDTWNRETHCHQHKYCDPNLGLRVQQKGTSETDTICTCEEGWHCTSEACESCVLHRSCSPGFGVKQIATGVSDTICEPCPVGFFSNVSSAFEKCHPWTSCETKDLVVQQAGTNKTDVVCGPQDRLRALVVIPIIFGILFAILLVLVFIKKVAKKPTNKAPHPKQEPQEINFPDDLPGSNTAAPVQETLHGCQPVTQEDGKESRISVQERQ
soluble CD40, sequence (P25942 21-193 limits assumed): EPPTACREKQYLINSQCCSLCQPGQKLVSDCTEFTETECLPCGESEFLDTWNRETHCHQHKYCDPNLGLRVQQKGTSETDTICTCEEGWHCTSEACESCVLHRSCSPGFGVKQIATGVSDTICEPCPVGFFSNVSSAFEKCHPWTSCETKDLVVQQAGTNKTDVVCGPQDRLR

binding to soluble CD40 (soluble CD40) | specific binding to human CD40 (cell-surface CD40; FACS analysis) | Molecule | displacement of CD40-ligand pre-bound to cell surface CD40 (cell-surface CD40; flow cytometric assays) | prevention of CD40-ligand binding to cell-surface CD40 (cell-surface CD40; flow cytometric assays) | effect on CD40 ligand-mediated proliferation of normal B cells ([1]; in vitro) | induction of proliferation of human lymphocytes (agonist activity) ([1]; lymphocytes from normal subjects, antibody alone) | killing of primary cancer cells by ADCC [2] | CD40 ligand-mediated proliferation of cancer cells [3] | ADCC activity, killing of CD40-expressing target cells [4] | CD40L-induced hGM-CSF secretion, folds of induction over background (normal B cells; Donor 1, 24 hours) | CD40L-induced hIL-1b secretion, folds of induction over background (normal B cells; Donor 1, 24 hours) | CD40L-induced hIL-12p70 secretion, folds of induction over background (normal B cells; Donor 1, 24 hours) | CD40L-induced hIL-1b secretion, folds of induction over background (normal B cells; Donor 2, 24 hours) | CD40L-induced hGM-CSF secretion, folds of induction over background (normal B cells; Donor 3, 24 hours) | CD40L-induced hIL-1b secretion, folds of induction over background (normal B cells; Donor 3, 24 hours) | CD40L-induced hIL-12p70 secretion, folds of induction over background (normal B cells; Donor 3, 24 hours) | CD40L-induced hGM-CSF secretion, folds of induction over background (monocytes) | CD40L-induced hIL1-b secretion, folds of induction over background (monocytes) | CD40L-induced hIL-12p70 secretion, folds of induction over background (monocytes)
bind soluble CD40 | bind specifically to human CD40 | CHIR-5.9: fully human anti-CD40 monoclonal antibody of the IgG1 isotype, hybridoma 131.2F8.5.9, ATCC PTA-5542, SEQ ID NO:6 and 7 | displace the pre-bound CD40-ligand; also recorded: can compete off CD40-ligand pre-bound to cell surface CD40 | prevent the binding of CD40-ligand to cell-surface CD40; also recorded: can prevent CD40-ligand binding | act as antagonist anti-CD40 antibodies; also recorded: inhibit in vitro CD40 ligand-mediated proliferation of normal B cells | do not induce strong proliferation | kill primary cancer cells from NHL patients by ADCC | inhibiting in vitro CD40 ligand-mediated proliferation of cancer cells from NHL and CLL patients | have ADCC activity; also recorded: able to kill CD40-expressing target cells |  |  |  |  |  |  |  |  |  | 
 |  | B1 |  |  |  |  |  |  |  | no induction | no induction | no induction | no induction | no induction | no induction | no induction | no induction | no induction | no induction

From patent US8333970B2, “Methods of monitoring the efficacy of anti-CD40 antibodies in treating a subject having an inflammatory or autoimmune disease” (Novartis AG, priority 2005, dated 2012)
